Assays:
canine CD20 [1] = target: T1, canine CD20 (canine, UniProt Q3C2E2 1-297); assay: cell-based or functional assay
T1 chain: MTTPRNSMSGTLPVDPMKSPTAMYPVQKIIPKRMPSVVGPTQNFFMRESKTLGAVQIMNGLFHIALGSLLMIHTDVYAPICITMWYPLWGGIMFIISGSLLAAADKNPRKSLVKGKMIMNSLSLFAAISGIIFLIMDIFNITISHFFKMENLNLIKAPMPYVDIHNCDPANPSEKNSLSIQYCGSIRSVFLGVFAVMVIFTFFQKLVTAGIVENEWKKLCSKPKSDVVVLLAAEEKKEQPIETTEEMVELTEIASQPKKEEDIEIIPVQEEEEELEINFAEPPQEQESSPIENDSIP

canine CD20 [2] = target: T2, canine CD20 (UniProt Q3C2E2 1-297); assay: flow cytometry, cCD20-expressing MDCK II cells; apparent Kd (EC50 of binding)
T2 chain: T1 chain

- ADCC EC50 (canine CD20 [1]): 0.29 nM
- CDC EC50 (canine CD20 [1]): 11.2 nM
- Kd (canine CD20 [2]): 1.1 nM
B1: PMX070 (antibody, V domains shown)
VH: EMQLVESGGDLVKPGGSLRLSCVASGFTFSRYHMSWVRQAPGKGLQWVAYINSGGSPTNYADAVKGRFTISRDNAKNTLYLQMNSLRAEDTAVYYCTTYDQWGQGTLVTVSS
VL: SYVLTQLPSKSVTLKQPAHITCGGDNIGSKSVHWYQQKLGQAPVLIIYYDSSRPTGIPERFSGANSGNTATLTISGALAEDEADYYCQVWDTSANVFGGGTHLTVL
- ADCC Maximum killing (%) (canine CD20 [1]): 51%
- CDC Maximum killing (%) (canine CD20 [1]): 97.1%
